T1: botulinum neurotoxin serotype B (BoNT/B) (Clostridium botulinum, UniProt P10844 2-1291)
T1 sequence: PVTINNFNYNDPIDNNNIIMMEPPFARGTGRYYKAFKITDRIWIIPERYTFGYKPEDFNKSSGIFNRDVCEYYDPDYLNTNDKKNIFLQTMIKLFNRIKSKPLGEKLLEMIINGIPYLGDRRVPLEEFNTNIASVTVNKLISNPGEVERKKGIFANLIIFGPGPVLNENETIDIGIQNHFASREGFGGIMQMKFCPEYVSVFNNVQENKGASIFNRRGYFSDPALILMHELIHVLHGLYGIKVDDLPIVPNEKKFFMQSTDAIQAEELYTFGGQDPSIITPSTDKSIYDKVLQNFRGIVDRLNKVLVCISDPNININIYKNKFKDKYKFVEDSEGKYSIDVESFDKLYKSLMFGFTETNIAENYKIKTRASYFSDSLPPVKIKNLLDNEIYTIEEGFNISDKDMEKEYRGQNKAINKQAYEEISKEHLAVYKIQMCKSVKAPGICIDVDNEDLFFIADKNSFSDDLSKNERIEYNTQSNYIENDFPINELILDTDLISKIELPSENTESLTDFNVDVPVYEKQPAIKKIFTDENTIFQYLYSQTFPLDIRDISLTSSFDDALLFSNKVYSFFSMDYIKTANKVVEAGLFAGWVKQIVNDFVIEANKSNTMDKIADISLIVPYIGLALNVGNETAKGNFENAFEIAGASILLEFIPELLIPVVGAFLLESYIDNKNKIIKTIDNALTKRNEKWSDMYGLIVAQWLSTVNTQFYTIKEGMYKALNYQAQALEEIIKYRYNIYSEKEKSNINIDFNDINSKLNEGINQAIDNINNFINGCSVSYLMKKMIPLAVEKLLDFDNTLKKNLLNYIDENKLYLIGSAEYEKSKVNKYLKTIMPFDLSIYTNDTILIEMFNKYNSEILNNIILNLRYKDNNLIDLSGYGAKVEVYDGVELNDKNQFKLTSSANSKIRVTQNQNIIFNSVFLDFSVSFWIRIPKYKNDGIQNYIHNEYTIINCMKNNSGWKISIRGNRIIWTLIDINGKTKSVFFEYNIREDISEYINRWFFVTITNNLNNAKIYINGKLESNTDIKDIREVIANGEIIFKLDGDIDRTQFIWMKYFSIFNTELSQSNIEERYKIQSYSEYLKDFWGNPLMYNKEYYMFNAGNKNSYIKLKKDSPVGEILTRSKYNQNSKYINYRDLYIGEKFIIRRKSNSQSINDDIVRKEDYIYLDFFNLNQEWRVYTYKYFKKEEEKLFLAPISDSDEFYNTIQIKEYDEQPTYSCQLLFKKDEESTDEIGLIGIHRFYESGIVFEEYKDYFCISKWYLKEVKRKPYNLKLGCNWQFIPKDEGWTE

B1: rHu-BF5-A6 (antibody, V domains shown)
VH: EVQLQQSGAELVKPGASVKLSCTASGFNIKDTFMHWVKQRPEQGLEWIGRIDPANGNTEYDPKFQGKATITADTSSNTVNLQLSSLTSEDTAVYYCASGGELGFPYWGQGTLVTVSA
VL: DIQMTQSPASLSASVGETVTITCRASGNIHNYLAWYQQKQGKSPQLLVYNAKTLADGVPSRFSGSGSGTQYSLKINSLQPEDFGSYYCQHFWSTPWTFGGG
B2: rHu-BF5-B1 (antibody, V domains shown)
VH: EVQLQQSGAELVKPGASVKLSCTASGFNIKDTFMHWVKQRPEQGLEWIGRIDPANGNTEYDPKFQGKATITADTSSNTVNLQLSSLTSEDTAVYYCASGGELGFPYWGQGTLVTVSA
VL: DIQMTQSPASLSASVGETVTITCRASGNIHNYLAWYQQKQGKSPQLLVYNAKTLADGVPSRFSGSGSGTQYSLKINSLQPEDFGSYYCQHFWSTPWTFGGG

Columns and labels:
[1] = molecular target: T2, botulinum neurotoxin serotype A (BoNT/A) (Clostridium botulinum, UniProt P0DPI0 2-1296); assay: direct ELISA, […], antibody at 1.25 ug/ml
[2] = molecular target: T1, botulinum neurotoxin serotype B (BoNT/B); assay: direct ELISA, […], antibody at 1.25 ug/ml
[3] = molecular target: T2, botulinum neurotoxin serotype A (BoNT/A); assay: capture ELISA, antibody coated at 5.0 ug/ml
[4] = molecular target: T1, botulinum neurotoxin serotype B (BoNT/B); assay: capture ELISA, antibody coated at 5.0 ug/ml
[5] = molecular target: T2, botulinum neurotoxin serotype A (BoNT/A); assay: capture ELISA titration, antibody at 5.0 ug/ml
[6] = molecular target: T1, botulinum neurotoxin serotype B (BoNT/B); assay: capture ELISA titration, antibody at 5.0 ug/ml

T2 sequence (P0DPI0 2-1296 limits assumed): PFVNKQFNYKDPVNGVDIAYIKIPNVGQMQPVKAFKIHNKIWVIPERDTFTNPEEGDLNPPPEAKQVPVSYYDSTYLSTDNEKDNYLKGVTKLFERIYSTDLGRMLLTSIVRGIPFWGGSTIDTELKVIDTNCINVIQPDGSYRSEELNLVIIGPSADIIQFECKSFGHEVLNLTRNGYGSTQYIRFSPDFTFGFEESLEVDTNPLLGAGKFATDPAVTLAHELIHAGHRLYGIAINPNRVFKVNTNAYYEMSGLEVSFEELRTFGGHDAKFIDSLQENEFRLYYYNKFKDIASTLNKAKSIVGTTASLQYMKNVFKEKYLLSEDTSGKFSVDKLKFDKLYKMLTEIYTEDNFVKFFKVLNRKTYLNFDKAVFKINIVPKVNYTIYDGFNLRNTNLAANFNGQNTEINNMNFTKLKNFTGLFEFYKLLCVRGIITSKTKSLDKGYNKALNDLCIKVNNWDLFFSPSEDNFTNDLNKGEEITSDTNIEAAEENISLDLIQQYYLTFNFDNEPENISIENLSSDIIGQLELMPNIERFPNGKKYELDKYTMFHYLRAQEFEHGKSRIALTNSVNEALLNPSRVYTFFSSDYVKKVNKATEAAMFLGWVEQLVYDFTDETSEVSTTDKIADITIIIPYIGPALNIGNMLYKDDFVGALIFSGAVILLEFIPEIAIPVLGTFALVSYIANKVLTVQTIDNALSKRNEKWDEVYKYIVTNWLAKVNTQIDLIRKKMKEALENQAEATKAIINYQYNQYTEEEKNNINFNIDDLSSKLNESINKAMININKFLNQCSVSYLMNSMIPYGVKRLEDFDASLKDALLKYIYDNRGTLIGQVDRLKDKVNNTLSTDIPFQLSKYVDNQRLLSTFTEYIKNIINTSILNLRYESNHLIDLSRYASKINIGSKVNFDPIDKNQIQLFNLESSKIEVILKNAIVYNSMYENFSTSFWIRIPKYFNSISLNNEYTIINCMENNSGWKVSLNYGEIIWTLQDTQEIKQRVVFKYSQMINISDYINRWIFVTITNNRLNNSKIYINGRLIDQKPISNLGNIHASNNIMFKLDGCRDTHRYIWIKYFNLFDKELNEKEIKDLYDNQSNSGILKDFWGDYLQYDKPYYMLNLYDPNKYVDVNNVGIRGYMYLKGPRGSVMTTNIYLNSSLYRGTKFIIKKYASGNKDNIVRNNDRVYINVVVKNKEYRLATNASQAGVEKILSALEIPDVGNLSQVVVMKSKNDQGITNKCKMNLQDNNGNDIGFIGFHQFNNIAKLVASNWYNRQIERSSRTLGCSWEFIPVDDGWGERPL

Binder	detection limit [1]	detection limit [2]	detection limit [3]	detection limit [4]	lowest amount detected [5]	lowest amount detected [6]
B1	9.4 ng	11.8 ng	0.29 ng	0.35 ng	0.3 ng	0.4 ng
B2	9.4 ng	11.8 ng	0.29 ng	0.35 ng	0.3 ng	0.4 ng
